Results on 1 molecule are retold here after patent US20160194644A1 (COMMISSARIAT A L ENERGIE ATOMIQUE ET AUX ENERGIES …, published 2016).

In the assay the target is T1, Flag-RNF185 (wild type, full length human RNF185 with N-terminal Flag tag) (human, UniProt Q96GF1 2-192).
T1 construct: Expressed by transfection in HEK293T cells; co-immunoprecipitation from lysates; For the CFTR co-IP, cells expressing WT RNF185 were treated with MG132 for 5 hours; also called RNF185 WT; Flag-tagged RNF185
T1 sequence: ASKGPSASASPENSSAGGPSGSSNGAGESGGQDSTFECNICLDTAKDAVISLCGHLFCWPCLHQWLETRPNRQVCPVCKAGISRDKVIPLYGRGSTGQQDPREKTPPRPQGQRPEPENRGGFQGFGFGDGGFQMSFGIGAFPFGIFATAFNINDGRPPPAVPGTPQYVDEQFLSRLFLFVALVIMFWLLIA
As to the kind of experiment: Flag co-immunoprecipitation from HEK293T cell lysates.

B1: Ubc7/UBE2G1 (enzyme, UniProt P62253 1-170, looked up)
chain: MTELQSALLLRRQLAELNKNPVEGFSAGLIDDNDLYRWEVLIIGPPDTLYEGGVFKAHLTFPKDYPLRPPKMKFITEIWHPNVDKNGDVCISILHEPGEDKYGYEKPEERWLPIHTVETIMISVISMLADPNGDSPANVDAAKEWREDRNGEFKRKVARCVRKSQETAFE
notes: the construct is not described
As to B1, the binding result is recorded as “no binding”.
